Test system: K4 kissing-loop RNA reporter
Assay: apparent KD of K4 kissing-loop reporter; higher = weaker reporter binding
Details: Eterna round: R107
Method: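 RNA-MaP round R107: designed RNA switches with theophylline, tryptophan, arginine or FMN aptamers are transcribed on-chip within common flanks. They are titrated with a labelled K4 kissing-loop RNA reporter in RNA-MaP buffer (100 mM Tris pH 7.5, 80 mM KCl, 4 mM MgCl2), without ligand or with the indicated ligand. Median apparent KD per design.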

[1] = input ligand: theophylline 20 uM
[2] = input ligand: tryptophan 2.4 mM
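Also: bound reporter read as fluorescence of individual clusters on recovered sequencing chips by microscopy, with normalized cluster intensities fitted with a binding model.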

| Sequence | apparent KD of K4 kissing-loop reporter (input ligand: FMN 200 uM) | apparent KD of K4 kissing-loop reporter (input ligand: arginine 13.2 mM) | apparent KD of K4 kissing-loop reporter (input ligand: none) | apparent KD of K4 kissing-loop reporter [1] | apparent KD of K4 kissing-loop reporter [2] |
| --- | --- | --- | --- | --- | --- |
| ACACUUUACGUAGGAUAUGCGACGAGUGAUGUUCGUCAGGCGGCUUUAGCUUAAUCAGGCCGCCUAGCAGAAGGACGGGCAGUGU [Zaretiesre] | 142 nM | 149 nM | 199 nM | 195 nM | 181 nM |
| GGUAGUGCUAGCGAUACCAGUCAUAUCGCUCUGGAGUGAUGUUCCGGAACGUGCGGAGAAGACCCUUGGCAGCGCUUGACGGUGU [Exclusion Theophylline B GF5] | 218 nM | 234 nM | 318 nM | 251 nM | 298 nM |
| AGUGAUAUAUGAGGAUAUGGGUUUGUUAAUGAGUUAUUUUUAGUGUUGUUUGGUUAGUGAUGUUAUUUAGAAGGCGUGAGUGAUG [rrwswwmjmullin] | 93.7 nM | 89.4 nM | 81.9 nM | 111 nM | 76.5 nM |
| GUGCGCGCGGCGGCCGCCACUCGCAUGAGAGUGAUGUUCUCACCGUGACCGUAAGGUCGCGGUGUGAGGACCGGGCCGGGCUGCG [#2 Same State - Tryptophan B Attempt #24 (HarryS)] | 181 nM | 114 nM | 207 nM | 59.5 nM | 270 nM |
| UAAGAGGACCACUGCAAGAGUCCUCGAAUACGAGGACCGGUACGGCCGCCACUCGAUAACUUGUAGUGAUGUUGCAAGUAAGAAU [BrourdMod 1 - Jieux - Same State Tryptophan A] | 71.2 nM | 79.2 nM | 79.4 nM | 79.2 nM | 42.9 nM |
| AGUGAUGUUGUGUUAUGUUAGGGAAGUGAUCGAGGACCGGUACGGCCGCCACUCGAGUGAUGAGUGAGUGAUGUUUGUUUAGGGA [yytmullin] | 1030 nM | 670 nM | 1610 nM | 1070 nM | 590 nM |
| UGUUUUUACUGAAGGAGCGGCAAUUGAUACGUAGAUAUAGUGAUGUUAUAUAAGAUAGAGAGCCAGGUAGGUCGCAGAGUGUAUC [ExArgB.aB] | 217 nM | 188 nM | 207 nM | 172 nM | 213 nM |
| GCCGUACGCAUGGAUACCAGCAGAACUGCCCUCCCAGUGAUGUUGGGAGGAUCUUUCCUUUGCCCUUGGCAGCCAUGCGUACGGC | 126 nM | 112 nM | 124 nM | 84.8 nM | 117 nM |
| GCCGUACGCAUGGAUACCAGUCUUAGAGUGAUGUUCUAAUCGAUUGCGCCUGGAUCAAUGGACCCUUGGCAGCCAUGCGUACGGC | 129 nM | 97.3 nM | 120 nM | 125 nM | 112 nM |
| UAGGGCCCUGGAGGAUAUGAGUCUAGUGAUGUUAGGCGGUCCAUGCGCGUGGCGCGUUAUGCCCUUUUAGAAGGCCAGGGCCCUA [#2 Exclusion - FMN B Attempt #17 (HarryS)] | 119 nM | 72.8 nM | 99 nM | 99.3 nM | 92.4 nM |
| UACUUUAAUUUAUAACUAUCUUUAUUUUGUCAGGAUAUCGUAUAGUCGAGAAGGGACUCUAUCAAGUGAUGUUUGAUAUAUCGUU [JR_SSFMNA_Sub025] | 140 nM | 155 nM | 131 nM | 147 nM | 112 nM |
| AGGCCACACAGCGAGUGAUGUUUGCGUUAUCGAGGACCGGUACGGCCGCCACUCGGCCUUUAGCGCCUUACCAAUUAGGUGUUGC [theeternabot_sameState_KL_Trp_A_46] | 453 nM | 430 nM | 731 nM | 556 nM | 647 nM |
| GGAGGCUAUGCAGGAUAUAGUCGGUUGAGUGAUGUUUAACGACUAAACCUUCUAAGUCACAGCCCGCUAGAAGGGCAUAGCCUCC | 427 nM | 225 nM | 258 nM | 229 nM | 266 nM |
| GCGGCGGGCCAAGGAUAUAUUUUGGAGUGAUGUUGUUCAUUUAUUUGAGCUAGUGAUGUUGGUCGAAUAGAAGGUGGCCCGCCGC [whbob_Ex_FMNB__2th219] | 65.8 nM | 29.4 nM | 56.9 nM | 35.9 nM | 46 nM |
| GUGCGGCUAGUGAUGUUGGUUGUGUGGGAAGGAGCGCAGAUUCAUGCAGGUAGGUCGCCCACACCUCUGAAAGGAGGCUAAUUCA [KL-SSArg-A16] | 453 nM | 300 nM | 315 nM | 368 nM | 331 nM |
| UGUGAGCUGUCGACAAAAGUCGACUAAAACGAGGAUAUGACGAAAGUCAGAAGGCGUCAAUAAUGGAGUGAUGUUCCUGCUCACU [FmnA 9 #SwitchBubble #K4Late] | 256 nM | 404 nM | 552 nM | 453 nM | 401 nM |
| AAUUUACAAUAAUCAUUUAAAGGAUCAGAAGGAGCGUGAAAUAACACAGGUAGGUCGCUGAGCGAGUGAUGUUCGCUAUAUACAA [JR_ExcArginiA_Sub001] | 52.3 nM | 68.7 nM | 68.8 nM | 85.9 nM | 50.1 nM |
| AGAGCGGUCGAAGGAUAUGAGACAACCAACGGUGAGUGAUGUUUGCCGAGUAAACCUCUAGUUGCGUCAGAAGGUCGGCUCAGUC [theeternabot_sameState_KL_FMN_B_25] | 595 nM | 460 nM | 633 nM | 625 nM | 520 nM |

— the supplement of paper PMC9170038
